Measurements as given in patent US20220195058A1 (Regeneron, published 2022).

B1: REGN9037 (antibody, human IgG4 S228P, kappa)
heavy: QVQLQESGPGLVKPSETLSLTCTVSGASISTYYWSWIRQPPGKGLEWIGYIYYSGTTNYNPSLKSRVTISVDTSKNQFSLKLSSVTAADTAVYYCARDRGGYDGEWGQGTLVTVSSASTKGPSVFPLAPCSRSTSESTAALGCLVKDYFPEPVTVSWNSGALTSGVHTFPAVLQSSGLYSLSSVVTVPSSSLGTKTYTCNVDHKPSNTKVDKRVESKYGPPCPPCPAPEFLGGPSVFLFPPKPKDTLMISRTPEVTCVVVDVSQEDPEVQFNWYVDGVEVHNAKTKPREEQFNSTYRVVSVLTVLHQDWLNGKEYKCKVSNKGLPSSIEKTISKAKGQPREPQVYTLPPSQEEMTKNQVSLTCLVKGFYPSDIAVEWESNGQPENNYKTTPPVLDSDGSFFLYSRLTVDKSRWQEGNVFSCSVMHEALHNRFTQKSLSLSPGK
chain: not shown
light: not shown
notes: Monovalent (one-armed) human IgG4: one full heavy chain, one light chain and one truncated heavy chain (Fc); also called one-armed anti-R5381 antibody; monovalent anti-R5381 mAb
B2: REGN9035 (antibody, human IgG4 S228P, kappa)
heavy: QVQLVESGGGVVQPGRSLRLSCAASGFTFSSYGMHWVRQAPGKGLEWVALIWFDGGYKYYADSVKGRFTISRDNSKNTLYLQMNSLRADDTAVYYCARGSAAAGHVPFDYWGQGILVTVSSASTKGPSVFPLAPCSRSTSESTAALGCLVKDYFPEPVTVSWNSGALTSGVHTFPAVLQSSGLYSLSSVVTVPSSSLGTKTYTCNVDHKPSNTKVDKRVESKYGPPCPPCPAPEFLGGPSVFLFPPKPKDTLMISRTPEVTCVVVDVSQEDPEVQFNWYVDGVEVHNAKTKPREEQFNSTYRVVSVLTVLHQDWLNGKEYKCKVSNKGLPSSIEKTISKAKGQPREPQVYTLPPSQEEMTKNQVSLTCLVKGFYPSDIAVEWESNGQPENNYKTTPPVLDSDGSFFLYSRLTVDKSRWQEGNVFSCSVMHEALHNRFTQKSLSLSPGK
chain: not shown
light: not shown
notes: as for B1
B3: REGN6581 (antibody, human IgG4 S228P, kappa, V domains shown)
VH: QVQLQESGPGLVKPSETLSLTCTVSGASISTYYWSWIRQPPGKGLEWIGYIYYSGTTNYNPSLKSRVTISVDTSKNQFSLKLSSVTAADTAVYYCARDRGGYDGEWGQGTLVTVSS
VL: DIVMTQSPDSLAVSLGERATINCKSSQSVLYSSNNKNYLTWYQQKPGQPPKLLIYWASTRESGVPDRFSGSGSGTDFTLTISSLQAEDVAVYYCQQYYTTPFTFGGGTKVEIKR
notes: Bivalent human IgG4; also called bivalent anti-R5381 mAb; anti-idiotype antibody
B4: REGN6580 (antibody, human IgG4 S228P, kappa, V domains shown)
VH: QVQLVESGGGVVQPGRSLRLSCAASGFTFSSYGMHWVRQAPGKGLEWVALIWFDGGYKYYADSVKGRFTISRDNSKNTLYLQMNSLRADDTAVYYCARGSAAAGHVPFDYWGQGILVTVSS
VL: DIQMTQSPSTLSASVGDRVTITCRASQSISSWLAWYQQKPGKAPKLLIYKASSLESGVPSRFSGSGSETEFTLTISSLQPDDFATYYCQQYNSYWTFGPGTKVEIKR
notes: as for B3

target: T1, H2aM22033N; experiment: SPR Biacore 4000, H2aM22033N captured via anti-mouse Fc, 37 C, association pH 7.4, dissociation pH 5.0
T1 construct: also called parental hybridoma of R5381
Description: (§1) All binding studies were performed at 37° C. using four running buffers, (i) PBS, 0.05% v/v Surfactant Tween-20, pH 7.4 (PBS-T-pH 7.4), (ii) PBS, 0.05% v/v Surfactant Tween-20, pH 6.5 (PBS-T-pH 6.5), (iii) PBS, 0.05% v/v Surfactant Tween-20, pH 6.0 (PBS-T-pH 6.0), and (iv) PBS, 0.05% v/v Surfactant Tween-20, pH 5.0 (PBS-T-pH 5.0).
(§2) The dissociation rate constants (kd) in four pH running buffers were determined by fitting the real-time binding sensorgrams to a 1:1 binding model using Scrubber 2.0c curve-fitting software. The dissociative half-life (t½) was calculated from the kd values as:

Which koff does the source give for B1 here?
The koff was 0.000664 s⁻¹.

What about the t1/2 of the same binder?
The t1/2 was 17 min.

How did the koff turn out when B2 was run?
Its koff is 0.0197 s⁻¹.

What about the t1/2 of the same binder?
The t1/2 was 0.6 min.

target: T1, H2aM22033N; experiment: SPR Biacore 4000, H2aM22033N captured via anti-mouse Fc, 37 C, association pH 7.4, dissociation pH 7.4
Description: as §1, §2

Which results are given for B1?
koff: 0.000867 s⁻¹; t1/2: 13 min

With B2 as the binder, how does the koff read?
The koff was 0.000996 s⁻¹.

And the t1/2?
The t1/2 was 12 min.

target: REGN1945; experiment: cell-based or functional assay

For B1, which “C1q-CIC assay Final Value; 100 nM antibody + 100 nM antigen; Result Neg” value is on record?
Its value is 0.37 ug Eq/mL.

What about the “C1q-CIC assay Final Value; 1 uM antibody + 100 nM antigen; Result Neg” value of the same binder?
Its value is 0.55 ug Eq/mL.

How did the “C1q-CIC assay Final Value; 100 nM antibody + 100 nM antigen; Result Neg” value turn out when B3 was run?
The value was 0.35 ug Eq/mL.

And the “C1q-CIC assay Final Value; 1 uM antibody + 100 nM antigen; Result Neg” value?
The value was 0.3 ug Eq/mL.

target: R5381; experiment: cell-based or functional assay

B1 was tested. Which “C1q-CIC assay Final Value; 100 nM antibody + 100 nM antigen; Result Neg” value did it give?
Its value is 0.64 ug Eq/mL.

And the “C1q-CIC assay Final Value; 1 uM antibody + 100 nM antigen; Result Neg” value?
Its value is 0.42 ug Eq/mL.

Which results are given for B3?
C1q-CIC assay Final Value; 100 nM antibody + 100 nM antigen; Result Neg: 0.65 ug Eq/mL; C1q-CIC assay Final Value; 1 uM antibody + 100 nM antigen; Result Neg: 0.53 ug Eq/mL

target: T2, R5381; experiment: blocking ELISA: antibody pre-bound to 95 pM Biotin-R5381, binding to coated hNPR1.ecto.mmh read
T2 construct: Fully human agonist anti-NPR1 monoclonal antibody; also called REGN5381; anti-NPR1 antibody
Description: After 1 hour, incubation at RT, the pre-bind reaction mix was transferred to microtiter plates coated with hNPR1.ecto.mmh. The microtiter plates were incubated at RT for 1 hour and then washed with plate washing solution. […] The plates were incubated with detection protein for 1 hour at RT and then washed with plate washing solution. The assay plates were developed with TMB colorimetric substrates according to the manufacturer's recommended procedure.
The absorbance at 450 nm for each well was recorded and plotted as the function of the concentration of antibody. Data was analyzed in GraphPad Prism software using a four-parameter logistic equation over an 11-point dose response curve and IC₅₀ values were calculated.

B1 was tested. Which “% Blocking with 333.33 nM antibody” value did it give?
Its value is 99%.

What about the IC50 of the same binder?
Its IC50 is 2.4 nM.

With B3 as the binder, how does the “% Blocking with 333.33 nM antibody” value read?
The value was 100%.

And the IC50?
The IC50 was 0.543 nM.

Which results are given for B2?
% Blocking with 333.33 nM antibody: 99.3%; IC50: 2.04 nM

What does the source list for B4?
% Blocking with 333.33 nM antibody: 100%; IC50: 0.381 nM

target: T1, H2aM22033N; experiment: SPR Biacore T200, H2aM22033N captured via anti-mouse Fc, analyte injected, 25 C, pH 7.4
Description: (§3) All binding studies were performed in 10 mM HEPES, 150 mM NaCl, 3 mM EDTA, and 0.05% v/v Surfactant Tween-20, pH 7.4 (HBS-ET) running buffer at 25° C. and 37° C. The Biacore CM5 sensor chip surface was first derivatized by amine coupling with anti-mouse Fc specific antibody (GE Healthcare, # BR100838) to capture H2aM22033N. […] The dissociation of different mAbs bound to H2aM22033N was monitored for 10 minutes in HBS-ET running buffer. At the end of each cycle, the H2aM22033N capture surface was regenerated using a 60 sec injection of 10 mM Glycine-HCl, pH 1.5. The association rate (kₐ) and dissociation rate (kd) were determined by fitting the real-time binding sensorgrams to a 1:1 binding model with mass transport limitation using Scrubber 2.0c curve-fitting software. Binding dissociation equilibrium constant (KD) and dissociative half-life (t½) were calculated from the kinetic rates as:

Which results are given for B1?
100 nM Ag Bound (RU): 31 RU; Kd: 1.52 nM; koff: 9.89e-05 s⁻¹; kon: 65100 M⁻¹ s⁻¹; t1/2: 117 min

How did the “100 nM Ag Bound (RU)” value turn out when B3 was run?
The value was 65 RU.

And the Kd?
The Kd was 0.561 nM.

What about the koff of the same binder?
The koff was 7.11e-05 s⁻¹.

And the kon?
Its kon is 127000 M⁻¹ s⁻¹.

What about the t1/2 of the same binder?
Its t1/2 is 163 min.

Which “100 nM Ag Bound (RU)” value does the source give for B2 here?
Its value is 47 RU.

And the Kd?
Its Kd is 1.76 nM.

And the koff?
The koff was 0.000132 s⁻¹.

What about the kon of the same binder?
Its kon is 75100 M⁻¹ s⁻¹.

And the t1/2?
The t1/2 was 87 min.

B4 was tested. Which “100 nM Ag Bound (RU)” value did it give?
Its value is 110 RU.

And the Kd?
The Kd was 0.528 nM.

What about the koff of the same binder?
The koff was 9.42e-05 s⁻¹.

And the kon?
Its kon is 178000 M⁻¹ s⁻¹.

What about the t1/2 of the same binder?
Its t1/2 is 123 min.

target: T1, H2aM22033N; experiment: SPR Biacore T200, H2aM22033N captured via anti-mouse Fc, analyte injected, 37 C, pH 7.4
Description: as §3

B1 was tested. Which “100 nM Ag Bound (RU)” value did it give?
The value was 55 RU.

What about the Kd of the same binder?
The Kd was 6.71 nM.

What about the koff of the same binder?
The koff was 0.000738 s⁻¹.

And the kon?
The kon was 110000 M⁻¹ s⁻¹.

What about the t1/2 of the same binder?
The t1/2 was 16 min.

Which results are given for B3?
100 nM Ag Bound (RU): 104 RU; Kd: 1.16 nM; koff: 0.000367 s⁻¹; kon: 317000 M⁻¹ s⁻¹; t1/2: 31 min

How did the “100 nM Ag Bound (RU)” value turn out when B2 was run?
Its value is 81 RU.

And the Kd?
The Kd was 5.78 nM.

What about the koff of the same binder?
The koff was 0.00086 s⁻¹.

And the kon?
The kon was 149000 M⁻¹ s⁻¹.

And the t1/2?
The t1/2 was 13 min.

What does the source list for B4?
100 nM Ag Bound (RU): 160 RU; Kd: 0.914 nM; koff: 0.000424 s⁻¹; kon: 464000 M⁻¹ s⁻¹; t1/2: 27 min

target: T1, H2aM22033N; experiment: SPR Biacore 4000, H2aM22033N captured via anti-mouse Fc, 37 C, association pH 7.4, dissociation pH 6.0
Description: as §1, §2

B1 was tested. Which koff did it give?
Its koff is 0.000811 s⁻¹.

What about the t1/2 of the same binder?
The t1/2 was 14 min.

With B2 as the binder, how does the koff read?
Its koff is 0.00294 s⁻¹.

What about the t1/2 of the same binder?
The t1/2 was 3.9 min.

target: T1, H2aM22033N; experiment: SPR Biacore 4000, H2aM22033N captured via anti-mouse Fc, 37 C, association pH 7.4, dissociation pH 6.5
Description: as §1, §2

Which koff does the source give for B1 here?
Its koff is 0.000792 s⁻¹.

And the t1/2?
The t1/2 was 15 min.

What does the source list for B2?
koff: 0.00142 s⁻¹; t1/2: 8 min

target: REGN1945; experiment: cell-based or functional assay; remark: another data set of the same source

How did the “C1q-CIC assay Final Value; 100 nM antibody + 100 nM antigen; Result Neg” value turn out when B2 was run?
Its value is 0.15 ug Eq/mL.

What about the “C1q-CIC assay Final Value; 1 uM antibody + 100 nM antigen; Result Neg” value of the same binder?
The value was 0.2 ug Eq/mL.

Which “C1q-CIC assay Final Value; 100 nM antibody + 100 nM antigen; Result Neg” value does the source give for B4 here?
The value was 0.11 ug Eq/mL.

And the “C1q-CIC assay Final Value; 1 uM antibody + 100 nM antigen; Result Neg” value?
The value was 0.16 ug Eq/mL.

target: T2, R5381; experiment: cell-based or functional assay

Which “C1q-CIC assay Final Value; 100 nM antibody + 100 nM antigen; Result Neg” value does the source give for B2 here?
Its value is 0.18 ug Eq/mL.

And the “C1q-CIC assay Final Value; 1 uM antibody + 100 nM antigen; Result Neg” value?
The value was 0.29 ug Eq/mL.

What does the source list for B4?
C1q-CIC assay Final Value; 100 nM antibody + 100 nM antigen; Result Neg: 0.22 ug Eq/mL; C1q-CIC assay Final Value; 1 uM antibody + 100 nM antigen; Result Neg: 0.2 ug Eq/mL

target: T2, R5381; experiment: cell-based or functional assay; remark: another data set of the same source

With B1 as the binder, how does the “IC50 of inhibition of 70 nM R5381-induced cGMP, 40 pM ANP” value (“IC50 of inhibition … 40 pM ANP” below) read?
Its value is 1.76e-08 M.

And the “IC50 of inhibition of 70 nM R5381-induced cGMP, 80 pM BNP” value (“IC50 of inhibition … 80 pM BNP” below)?
Its value is 3.81e-08 M.

And the “IC50 of inhibition of 70 nM R5381-induced cGMP, no ligand” value (“IC50 of inhibition … no ligand” below)?
The value was 36.3 nM.

What about the “Max Inh. (%) of 70 nM R5381-induced cGMP, 40 pM ANP” value (“Max Inh. (%) … 40 pM ANP” below) of the same binder?
Its value is 101%.

And the “Max Inh. (%) of 70 nM R5381-induced cGMP, 80 pM BNP” value (from here on “Max Inh. (%) … 80 pM BNP”)?
Its value is 97%.

And the “Max Inh. (%) of 70 nM R5381-induced cGMP, no ligand” value (shortened to “Max Inh. (%) … no ligand”)?
The value was 99%.

B3 was tested. Which “IC50 of inhibition … 40 pM ANP” value did it give?
The value was 2.06e-08 M.

And the “IC50 of inhibition … 80 pM BNP” value?
Its value is 3.5e-08 M.

And the “IC50 of inhibition … no ligand” value?
The value was 18 nM.

What about the “Max Inh. (%) … 40 pM ANP” value of the same binder?
The value was 104%.

What about the “Max Inh. (%) … 80 pM BNP” value of the same binder?
Its value is 99%.

And the “Max Inh. (%) … no ligand” value?
Its value is 100%.

With B2 as the binder, how does the “IC50 of inhibition … 40 pM ANP” value read?
Its value is 2.66e-08 M.

What about the “IC50 of inhibition … 80 pM BNP” value of the same binder?
Its value is 4.13e-08 M.

And the “IC50 of inhibition … no ligand” value?
The value was 46 nM.

What about the “Max Inh. (%) … 40 pM ANP” value of the same binder?
The value was 104%.

What about the “Max Inh. (%) … 80 pM BNP” value of the same binder?
The value was 97%.

What about the “Max Inh. (%) … no ligand” value of the same binder?
Its value is 100%.

Which “IC50 of inhibition … 40 pM ANP” value does the source give for B4 here?
The value was 2.23e-08 M.

What about the “IC50 of inhibition … 80 pM BNP” value of the same binder?
Its value is 3.32e-08 M.

What about the “IC50 of inhibition … no ligand” value of the same binder?
Its value is 15.5 nM.

And the “Max Inh. (%) … 40 pM ANP” value?
Its value is 102%.

What about the “Max Inh. (%) … 80 pM BNP” value of the same binder?
The value was 99%.

And the “Max Inh. (%) … no ligand” value?
Its value is 99%.
